Source: the DeepSol protein solubility set

Test: soluble on expression in E. coli; label from the status in PepcDB or PDB records

Sequence | soluble on expression in E. coli
MGSDKIHHHHHHMSQTTLSTIPRLIGQVLSIYDVAPEAIFSAANIDITSDAQTRVPMENMATLWKLAVEATHNNELGLVAASLFQPVYLKSIGLAWLASENLEEGLKRYIASSQLINTEMQIELTERDGIDGEETLIQYQRRLTSSNTIKVHPCAIELGIGFFLKMFRLAAGKNIPATGVYFTFAIEENNKVYEEYFQCPVYGNQAVNGIAFSKALLTETLPTHDVELVEMNEVVINKHLDSMDNGETSSKVIKMINDLLPLGCPTEEVIAYKLHMSKRTLQRKLSVEKQSFLALLTSVRLMLAKEKLANKRVSVTEITYQLGYSSPSTFARAFKKHTQLSPLEYRNQVSSYSSCS | not soluble
MSLAYTIKKVEKETKISAHTLRFWAKKGLFPFVQKDENSVKYFSKSDIEWVKWIEWLRISGMPIEQVKHYIKLCSLGIKTAKERQEMLKQTKKKLQNQIKTLKESEKVLSKKIKIYEEMLANEVDGFNPESKDYQPCDKLHKFKGEGHHHHHH | not soluble
EVPDLPEEPSETAEEVVTVALRCPNGRVLRRRFFKSWNSQVLLDWMMKVGYHKSLYRLSTSFPRRALEVEGGSSLEDIGITVDTVLNVEEKEQSSQ | soluble
MLFMVKFRWETEFKETDIGKIPKDWDVKKIKDIGEVAGGSTPSTKIKEYWGGDIPWITPKDLANYEYIYISRGERNITEKAVKECSLRIFPKGTILLTSRAPIGYVAIAKNPLTTNQGFRNIIPKDGVVSEYLYYLFKTKTMSEYLKDISGGSTFPELKGSTLKEVEIPYPSPEEQQKIATVLSYFDDLIENKKKQNEILEKIALELFKNWFIDFEPFKNEEFVYNDELDKEIPKGWEVKRLGDILKVESGSNAPQREIYFENAKIPFVRVKHLVKGVCIESSDFINELALKDYKMKLYNEKSIIFQKSGESLKEARVNIVPFKFTAVNHLAVIDSSMLNEKHYFIYCLLRFLLKEIVYSVKGTTLPYLKISDIENKYIIIPPQPILQKFHSLVQPLFEKIINNQKQIMVLKKIRDALLPKLVFGELRVEEL | soluble
HYTSPTVIQAIYNAVEQMDFTPGTVLEPSMGIGNFFGMLPEKLAAAKLYGVELDDLTGRIARQLYQKADITVDGFERTDHPDDFFDLAVGNVPFGSYQVHDKRYDRQNLMIHDYFITKTLDKVRPGGIVAFITTKGTMDKKNSKAREALAQKADLLGAVRLPSNAFKANAGTEVTTDILFFQKRDRIPEKLPEWVEVGQTEDGIPLNRYFLDHPEMVLGTM | not soluble
MPSSVELSVQAGLEHFDAAQWDALAGPQPFVRHAFLRALHDTGCASPGTGWTPCFLALRRAGLLAGAVPLYAKSHSRGEYVFDYAWADAYARNGLPYYPKLLSAVPFTPVGGARLLAHTHADRLLLARGLIQLARQFEVSSLHVLFPSDDDLLALREAGYLIRAGVQFHWRNAGYAGFDDFLAAFSHDKRKKIRQDRKKVAAERVSFRWLRGADIDAAALDFFYQCYRHTYLAHGNPPYLNLEFFRQLHAEMPDALVLILAEQDGQPVAAALNLQADGVLYGRYWGARRYIPGLHFETCYLQSIEYCIAHGQASFEGGAQGEHKMARGLLPTPTWSAHWIADTRFAAAIDDFLGHETHAIDEYRDELATHSPFRKT | not soluble
MVLSQKLHEAFKGTVERITGPRTISAFKEKGVLSVSEFVLAGDNLVSKCPTWSWESGDASKRKPYLPSDKQFLITRNVPCLRRAASVAEDYEAAGGEVLVDDEDNDGWLATHGKPKGKEEDNLPSMDALDINEKNTIQSIPTYFGGEEDDDIPDMEEFDEADNVVENDPATLQSTYLVAHEPDDDNILRTRTYDLSITYDKYYQTPRVWLTGYDESRMLLQPELVMEDVSQDHARKTVTIEDHPHLPGKHASVHPCRHGAVMKKIIDVLMSRGVEPEVDKYLFLFLKFMASVIPTIEYDYTMDFDLGSSST | not soluble
ATKEFIYLVRGMTPEQGQAALDLKVPGVYGIEEFRRFYPAGDVTAHMVGFTDLDDHGREGVELAYDDWLAGVPGKRQVIKDRRGRLIKDVQVTKNAKAGKTLALSID | not soluble
MAIPFFEEEHAPKSEPSGDQVDSPMAFSIDPGHDQVDFEGPPSAAEELPPPGATSEPVAPPSAEEQLLAWKFLAITMCKVLKQFYQQHKSSGKSSKLKATVQIQPQAQ | not soluble
AHHHHHHGSSSIEWNEKTFAKFAYLSDPRTKGELVAYVLTKANLKDNKYENTIVIENLKNNARRFIENATMPRISPDGKKIAFMRANEEKKVSEIWVADLETLSSKKILEAKNIRSLEWNEDSRKLLIVGFKRREDEDFIFEDDVPAWFDDLGFFDGEKTTFWIFDTESEEVIEEFEKPRFSSGIWHRDKIVVNVPHREIIPQYFKFWDIYIWEDGKEEKMFEKVSFYAVDSDGERILLYGKPEKKYMSEHNKLYIYDGKEVMGILDEVDRGVGQAKIKDGKVYFTLFEEGSVNLYIWDGEIKPIAKGRHWIMGFDVDEIVVYLKETATRLRELFTWDGEEKQLTDYNDPIFAKLKTFEPVHFRYKSLDLEIDGWYMKPELKEGEKAPVIVFVHGGPKGMYGYYFKYEMQLMAAKGYYIVYVNPRGSNGYSEDFALRVLTRTGLEDFQDILNGIEEFLKLEPQADRERIGITGISYGGYMTNWALTQSDLFKAGISENGISYWLTSYAFSDIGLWFDKEVIGENPLENENFRRLSPLFYAKNVKAPILLIHSLEDYRCPLDQSLMFYHVLKDLGKEAYIAIFKRGAHGHSIRGQPRHRMKRYKLFVEFFERKLKKYEEGFPIEKILKE | not soluble
PKLSQDEIDDLKDVFELFAFWDGRDGAVDAFKLGDVCRCLGINPRNEDVFAVGGTHKMGEKSLPFEEFLPAYEGLMDCEQGTFADYMEAFKTFDREGQGFISGAELRHVLTALGERLSDEDVDEIIKLTDLQEDLEGNVKYEDFVKKVMAGPYPDK | soluble
MQIEKLRGQGLDEFFQGILTLENLEECYAFFDDVCTVNEIQSMAQRFQVAKMLHDGKTYNVIESETGASTATISRVKRSLHYGNDMYDVVFSRMTKPE | not soluble
MSTDSQNPVRKSCAQPHSCSQEVRLKAMSRSPLTKGLNQLEHLELDKSLTAWSWAEDDPLYLAGENLNGSYLIVAGRVRVSRDTIDGKELTVDIATPGDVIGAIDTEPQPAVDSAWAIETTCALFLPATALATVIEQHPSFALAMIRMQQQRLATARDHEINLTTTTVEQRVAIAVRTLGRKIGQRRPDGILLIQVRIRREDVAGLAGTTVESTSRVLARLRKEGVIDSGREWIAVVDERQLDAIIGEDF | not soluble
MNDMSDWKPKRFWKQAAVAETAEGYAVELDGRPVRTPAKAPLLLPTRALAEAIAAEWDAQESEVDPINMPFTRTANAAIDKVRIQQAEVADMLAAYGDSDLLCYRADSPAELVELQAQTWDPALDWAAETLGVRLRPVQGVMHQPQPASAIETLTRKVHALNPFQLAAFHDLVSLSGSLVLGFAAALNWRKADEIWQISRLDETWQEEQWGPDDEARALAAVKRAAFLHAKAAYDISTLEHHHHHH | not soluble
MFRRLILRQAAAVAAESKIACHHTVHGFEQRRGLHSRNEKAMEYVAKGWSAIKEVERVIDYCELNDRRLIPLLRGAKENFELALEADNLNTHARYWLSKLHLKYHVPGACKAVGAALLVEAADMGNADAQYELGCRLRVENDHVQSDQQAFHYIENAVDQLHPGALYLLGIVYLTGDCVKQDVDSAIWCFHRASEKGHAGAAIAYGSLLLRGVQVPESLTKLNVVGVSPPKRARKNLENPEMNPLEMAKEQFQIAARAGCDLGLKWLQRVEQEEKLLMREQDNECAYV | not soluble
AHHHHHHGSVVKRTMTKKFLEEAFAGESMAHMRYLIFAEKAEQEGFPNIAKLFRAIAYAEFVHAKNHFIALGKLGKTPENLQMGIEGETFEVEEMYPVYNKAAEFQGEKEAVRTTHYALEAEKIHAELYRKAKEKAEKGEDIEIKKVYICPICGYTAVDEAPEYCPVCGAPKEKFVVFE | soluble
MGSDKIHHHHHHRECVQTSLSWRNDTTGIWETAGWWNSANVLTATIRYGAVTKDPAIPSVIEDVFEKARHYQVGVDSTGTPRYCDNFINDYYDDEGWWALAWIEASKLTGEKKYLDMAEIIFDDMTTGWSDACGGGIFWKKNPLHYKNSIANNLFSLTAIRLYKATQNPAYLDWFKKNVDWYMRTGMINTNIYQIEDGTKDDCTPNRNAHYTYNQGVAIAVLAEMYLQTNDKSYLELAEKIADATITTQLITDEGILREMKPEIDDSNDGVQFKGIFIRHLAFLYEVTKNPAYKDFILKNAESIITKDYDPTSKSFGCYWYGPFHKENSAANACALECVIEAYDLTK | not soluble
